Values quoted from earlier work as cited in publication PMC7156326.

Molecular target: GATAD2A coiled-coil (Homo sapiens) (UniProt Q86YP4)
Sequence of UniProt Q86YP4 (Q86YP4 137-178): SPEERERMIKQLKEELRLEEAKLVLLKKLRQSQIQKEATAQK

Kd: 0.05 µM
Substance: MBD2 coiled-coil (from UniProt Q9UBB5)
